# Assay results: US20230002480A1
# Key:
# Assay in all cases: cell-based or functional assay
# [1] = molecular target: HIV-1 Env of pseudovirus 0815.v3.c3 (HIV-1)
# [2] = molecular target: HIV-1 Env of pseudovirus Ce1172_H1 (HIV-1)
# [3] = molecular target: HIV-1 Env of pseudovirus 1394C9G1(Rev-) (HIV-1)
# [4] = molecular target: HIV-1 Env of pseudovirus CAP45.2.00.G3 (HIV-1)
# [5] = molecular target: HIV-1 Env of pseudovirus 211-9 (HIV-1)
# [6] = molecular target: HIV-1 Env of pseudovirus SC422661.8 (HIV-1)
# [7] = molecular target: HIV-1 Env of pseudovirus ZM109F.PB4 (HIV-1)
# [8] = molecular target: HIV-1 Env of pseudovirus THRO4156.18 (HIV-1)
# [9] = molecular target: HIV-1 Env of pseudovirus CNE30 (HIV-1)
# [10] = molecular target: HIV-1 Env of pseudovirus 6480.v4.c25 (HIV-1)
# [11] = molecular target: HIV-1 Env of pseudovirus 620345.c01 (HIV-1)
# [12] = molecular target: HIV-1 Env of pseudovirus CNE8 (HIV-1)
# [13] = molecular target: HIV-1 Env of pseudovirus 6535.3 (HIV-1)
# [14] = molecular target: HIV-1 Env of pseudovirus C2101.c01 (HIV-1)
# [15] = molecular target: HIV-1 Env of pseudovirus X1193_c1 (HIV-1)
# [16] = molecular target: HIV-1 Env of pseudovirus CAP210.2.00.E8 (HIV-1)
# [17] = molecular target: HIV-1 Env of pseudovirus T255-34 (HIV-1)
# [18] = molecular target: HIV-1 Env of pseudovirus 3817.v2.c59 (HIV-1)
# [19] = molecular target: HIV-1 Env of pseudovirus 3103.v3.c10 (HIV-1)
# [20] = molecular target: HIV-1 Env of pseudovirus Q769.d22 (HIV-1)
# [21] = molecular target: HIV-1 Env of pseudovirus RHPA4259.7 (HIV-1)
# [22] = molecular target: HIV-1 Env of pseudovirus 6244_13_B5_4576 (HIV-1)
# [23] = molecular target: HIV-1 Env of pseudovirus WITO4160.33 (HIV-1)
# [24] = molecular target: HIV-1 Env of pseudovirus CAAN5342.A2 (HIV-1)
# [25] = molecular target: HIV-1 Env of pseudovirus BF1266.431a (HIV-1)
# [26] = molecular target: HIV-1 Env of pseudovirus 246F C1G (HIV-1)
# [27] = molecular target: HIV-1 Env of pseudovirus X2131_C1_B5 (HIV-1)
# [28] = molecular target: HIV-1 Env of pseudovirus HIV-001428-2.42 (HIV-1)
# [29] = molecular target: HIV-1 Env of pseudovirus 6240_08_TA5_4622 (HIV-1)
# [30] = molecular target: HIV-1 Env of pseudovirus 0260.v5.c36 (HIV-1)
# [31] = molecular target: HIV-1 Env of pseudovirus HIV-16055-2.3 (HIV-1)
# [32] = molecular target: HIV-1 Env of pseudovirus BJOX025000.01.1 (HIV-1)
# [33] = molecular target: HIV-1 Env of pseudovirus 191955_A11 (HIV-1)
# [34] = molecular target: HIV-1 Env of pseudovirus 9004SS_A3_4 (HIV-1)
# [35] = molecular target: HIV-1 Env of pseudovirus CNE58 (HIV-1)
# [36] = molecular target: HIV-1 Env of pseudovirus Ce0393_C3 (HIV-1)
# [37] = molecular target: HIV-1 Env of pseudovirus C3347.c11 (HIV-1)
substance,measurement,setting,value
PGDM1400 (antibody),"IC50, titer in TZM.bl cells",[1],> 50 µg/mL
same,"IC80, titer in TZM.bl cells",[1],> 50 µg/mL
same,IC50,[2],0.021 µg/mL
same,IC80,[2],0.06 µg/mL
same,IC50,[3],< 0.001 µg/mL
same,IC80,[3],0.004 µg/mL
same,IC50,[4],< 0.001 µg/mL
same,IC80,[4],0.002 µg/mL
same,"IC50, titer in TZM.bl cells",[5],0.088 µg/mL
same,"IC80, titer in TZM.bl cells",[5],0.393 µg/mL
same,IC50,[6],0.436 µg/mL
same,IC80,[6],6.53 µg/mL
same,IC50,[7],0.057 µg/mL
same,IC80,[7],0.382 µg/mL
same,IC50,[8],0.072 µg/mL
same,IC80,[8],0.348 µg/mL
same,IC50,[9],> 50 µg/mL
same,IC80,[9],> 50 µg/mL
same,"IC50, titer in TZM.bl cells",[10],> 50 µg/mL
same,"IC80, titer in TZM.bl cells",[10],> 50 µg/mL
same,"IC50, titer in TZM.bl cells",[11],0.009 µg/mL
same,"IC80, titer in TZM.bl cells",[11],40.3 µg/mL
same,"IC50, titer in TZM.bl cells",[12],< 0.001 µg/mL
same,"IC80, titer in TZM.bl cells",[12],0.01 µg/mL
same,IC50,[13],> 50 µg/mL
same,IC80,[13],> 50 µg/mL
same,"IC50, titer in TZM.bl cells",[14],0.006 µg/mL
same,"IC80, titer in TZM.bl cells",[14],0.021 µg/mL
same,"IC50, titer in TZM.bl cells",[15],0.219 µg/mL
same,"IC80, titer in TZM.bl cells",[15],0.781 µg/mL
same,IC50,[16],0.034 µg/mL
same,IC80,[16],0.514 µg/mL
same,"IC50, titer in TZM.bl cells",[17],0.654 µg/mL
same,"IC80, titer in TZM.bl cells",[17],> 50 µg/mL
same,"IC50, titer in TZM.bl cells",[18],> 50 µg/mL
same,"IC80, titer in TZM.bl cells",[18],> 50 µg/mL
same,"IC50, titer in TZM.bl cells",[19],0.671 µg/mL
same,"IC80, titer in TZM.bl cells",[19],2 µg/mL
same,IC50,[20],0.002 µg/mL
same,IC80,[20],0.018 µg/mL
same,IC50,[21],0.447 µg/mL
same,IC80,[21],2.19 µg/mL
same,IC50,[22],> 50 µg/mL
same,IC80,[22],> 50 µg/mL
same,IC50,[23],< 0.001 µg/mL
same,IC80,[23],0.008 µg/mL
same,IC50,[24],> 50 µg/mL
same,IC80,[24],> 50 µg/mL
same,IC50,[25],0.003 µg/mL
same,IC80,[25],0.011 µg/mL
same,IC50,[26],> 50 µg/mL
same,IC80,[26],> 50 µg/mL
same,"IC50, titer in TZM.bl cells",[27],0.128 µg/mL
same,"IC80, titer in TZM.bl cells",[27],0.568 µg/mL
same,IC50,[28],< 0.001 µg/mL
same,IC80,[28],0.027 µg/mL
same,IC50,[29],> 50 µg/mL
same,IC80,[29],> 50 µg/mL
same,IC50,[30],0.033 µg/mL
same,IC80,[30],0.175 µg/mL
same,IC50,[31],< 0.001 µg/mL
same,IC80,[31],0.003 µg/mL
same,"IC50, titer in TZM.bl cells",[32],0.087 µg/mL
same,"IC80, titer in TZM.bl cells",[32],0.573 µg/mL
same,IC50,[33],0.001 µg/mL
same,IC80,[33],0.021 µg/mL
same,IC50,[34],< 0.001 µg/mL
same,IC80,[34],0.002 µg/mL
same,IC50,[35],0.004 µg/mL
same,IC80,[35],0.014 µg/mL
same,IC50,[36],0.015 µg/mL
same,IC80,[36],0.044 µg/mL
same,"IC50, titer in TZM.bl cells",[37],0.011 µg/mL
same,"IC80, titer in TZM.bl cells",[37],0.051 µg/mL
VRC07 (antibody),"IC50, titer in TZM.bl cells",[1],0.015 µg/mL
same,"IC80, titer in TZM.bl cells",[1],0.051 µg/mL
same,neutralization IC50,[2],> 50 µg/mL
same,neutralization IC80,[2],> 50 µg/mL
same,neutralization IC50,[3],0.112 µg/mL
same,neutralization IC80,[3],0.368 µg/mL
same,neutralization IC50,[4],0.355 µg/mL
same,neutralization IC80,[4],3.09 µg/mL
same,"IC50, titer in TZM.bl cells",[5],5.92 µg/mL
same,"IC80, titer in TZM.bl cells",[5],38 µg/mL
same,neutralization IC50,[6],0.054 µg/mL
same,neutralization IC80,[6],0.175 µg/mL
same,neutralization IC50,[7],0.112 µg/mL
same,neutralization IC80,[7],0.389 µg/mL
same,neutralization IC50,[8],2.4 µg/mL
same,neutralization IC80,[8],12.2 µg/mL
same,neutralization IC50,[9],0.326 µg/mL
same,neutralization IC80,[9],1.08 µg/mL
same,"IC50, titer in TZM.bl cells",[10],0.032 µg/mL
same,"IC80, titer in TZM.bl cells",[10],0.134 µg/mL
same,"IC50, titer in TZM.bl cells",[11],> 50 µg/mL
same,"IC80, titer in TZM.bl cells",[11],> 50 µg/mL
same,"IC50, titer in TZM.bl cells",[12],0.45 µg/mL
same,"IC80, titer in TZM.bl cells",[12],1.56 µg/mL
same,neutralization IC50,[13],0.169 µg/mL
same,neutralization IC80,[13],0.517 µg/mL
same,"IC50, titer in TZM.bl cells",[14],0.238 µg/mL
same,"IC80, titer in TZM.bl cells",[14],1.4 µg/mL
same,"IC50, titer in TZM.bl cells",[15],0.037 µg/mL
same,"IC80, titer in TZM.bl cells",[15],0.249 µg/mL
same,neutralization IC50,[16],> 50 µg/mL
same,neutralization IC80,[16],> 50 µg/mL
same,"IC50, titer in TZM.bl cells",[17],0.227 µg/mL
same,"IC80, titer in TZM.bl cells",[17],0.987 µg/mL
same,"IC50, titer in TZM.bl cells",[18],1.9 µg/mL
same,"IC80, titer in TZM.bl cells",[18],19.8 µg/mL
same,"IC50, titer in TZM.bl cells",[19],0.675 µg/mL
same,"IC80, titer in TZM.bl cells",[19],1.95 µg/mL
same,neutralization IC50,[20],0.018 µg/mL
same,neutralization IC80,[20],0.087 µg/mL
same,neutralization IC50,[21],0.017 µg/mL
same,neutralization IC80,[21],0.048 µg/mL
same,neutralization IC50,[22],0.065 µg/mL
same,neutralization IC80,[22],0.23 µg/mL
same,neutralization IC50,[23],0.042 µg/mL
same,neutralization IC80,[23],0.193 µg/mL
same,neutralization IC50,[24],0.307 µg/mL
same,neutralization IC80,[24],1.05 µg/mL
same,neutralization IC50,[25],0.032 µg/mL
same,neutralization IC80,[25],0.117 µg/mL
same,neutralization IC50,[26],0.286 µg/mL
same,neutralization IC80,[26],1.04 µg/mL
same,"IC50, titer in TZM.bl cells",[27],0.219 µg/mL
same,"IC80, titer in TZM.bl cells",[27],1.03 µg/mL
same,neutralization IC50,[28],0.004 µg/mL
same,neutralization IC80,[28],0.016 µg/mL
same,neutralization IC50,[29],0.448 µg/mL
same,neutralization IC80,[29],1.54 µg/mL
same,neutralization IC50,[30],0.448 µg/mL
same,neutralization IC80,[30],1.62 µg/mL
same,neutralization IC50,[31],0.025 µg/mL
same,neutralization IC80,[31],0.135 µg/mL
same,"IC50, titer in TZM.bl cells",[32],0.279 µg/mL
same,"IC80, titer in TZM.bl cells",[32],2.29 µg/mL
same,neutralization IC50,[33],0.978 µg/mL
same,neutralization IC80,[33],4.82 µg/mL
same,neutralization IC50,[34],0.218 µg/mL
same,neutralization IC80,[34],0.75 µg/mL
same,neutralization IC50,[35],0.11 µg/mL
same,neutralization IC80,[35],0.298 µg/mL
same,neutralization IC50,[36],0.182 µg/mL
same,neutralization IC80,[36],0.634 µg/mL
same,"IC50, titer in TZM.bl cells",[37],0.06 µg/mL
same,"IC80, titer in TZM.bl cells",[37],0.38 µg/mL
